{"source": "the DeepSol protein solubility set", "data": [{"assay": "soluble on expression in E. coli; label from the status in PepcDB or PDB records", "values": [{"sequence": "VTDDLEPTAPAAAAPEPEVKGIDLARRALEEARAAAKASGKSVGQGRRSGTGVRALRARRRRGWSGPGPDDRDPQPFGALTNAIAKQRGWSPKVSEGTVLGRWVQVVGEDIAAHAEPTGLRDGILSVSAESTAWATQLRMMQSQILAKIAAAVGDGVVKSLRITGPTAPSWRKGERHIRGRGPRDTYG", "soluble on expression in E. coli": "not soluble"}, {"sequence": "VTTSSDPSSPVPQEDLDAVAAQLGREPRGVLEIAYRSPDGTPGVVKTAPKLPDGTPFPTLYYLTDPRLTAEASRQESAGVMREMTERLGQDPELAAAYLRAHESYLAERDAIEPLGTDFTGGGMPERVKCLHVLMAHSLAKGPGVNPLGDESVALAASAAGGKLRGTAIPADWPGIDDVESPEQ", "soluble on expression in E. coli": "not soluble"}, {"sequence": "VVQGTVKPHASFNSREDAETLRKAMKGIGTDEKSITHILATRSNAQRQQIKTDYTTLFGKHLEDELKSELSGNYEAAALALLRKPDEFLAEQLHAAMKGLGTDKNALIDILCTQSNAQIHAIKAAFKLLYKEDLEKEIISETSGNFQRLLVSMLQGGRKEDEPVNAAHAAEDAAAIYQAGEGQIGTDESRFNAVLATRSYPQLHQIFHEYSKISNKTILQAIENEFSGDIKNGLLAIVKSVENRFAYFAERLHHAMKGLGTSDKTLIRILVSRSEIDLANIKETFQAMYGKSLYEFIADDCSGDYKDLLLQITGH", "soluble on expression in E. coli": "soluble"}, {"sequence": "WGYQTDGRFQNFDEINTYPIQNGDNGNSKELPGDYILKDVNGDGVVNDLDKTPLFWSGSPLIHYGFNVEASWKNFDFYALFQGSALYTVQFDEVYAKMLCFKGGNTPEYFYDRWHLSDPYDANSEWIPGEWPAIRLEQDMGSFYTRDSQIWRKNASYLRLKTIEIGYTFSPRLMHKLGIGSLRIYANGNNLFTVCDPFVKAFDPEKIEGDYSAGLNYPLNKSFNFGLTLNF", "soluble on expression in E. coli": "not soluble"}, {"sequence": "WIRTGDGVRLRTVVWPEGAAGTVLIFSGRTEYAEKYGPAAEALRRRGFASATLDWRGQGLSDRSLRDPLVGHVDDFASYQQDVTAFVAALRAQGLPEPFHLLAHSMGGCIGLRALHEGLPVRAACFSAPMWGIRVHAALRIVAAALGALARATGLGHRYVPGTGTRSYVATAAFDTNVLTRDPEMFAWMQEQLVQAPELGLAGPSLDWLRAAFEETARLKRLPAPDLPALCIVGSAEKVVDLEEIQRRMEGWGRGELQIVPGAEHEVMMDRPEVRDAFFDAA", "soluble on expression in E. coli": "not soluble"}, {"sequence": "WLLAELTYRCPLQCPYCSNPLDFARQDKELTTEQWIEVFRQARAMGSVQLGFSGGEPLTRKDLPELIRAARDLGFYTNLITSGIGLTESKLDAFSEAGLDHIQISFQASDEVLNAALAGNKKAFQQKLTMAKAVKARDYPMVLNFVLHRHNIDQLDKIIELCIELEADDVELATCQFYGWAFLNREGLLPTREQIARAEQVVADYRQKMAASGNLTNLLFVTPDYYEERPKGCMGGWGSIFLSVTPEGTALPCH", "soluble on expression in E. coli": "not soluble"}, {"sequence": "YASRDMDIKRLGKAVMAAAGSPGHFPDVAIPGGVRALPDPQALAELRLPENYEESFEPVPYDGFDMMLTSHGTLDPLGDHVTARSGEERITFDLQTWADHVAESRPGDPAPRPLVHGHPYRVGPYAHGEAMVPRSLAEIRRIIADPRLCEGEFRKESSILSGIGVGAVEGPRGLLVHRYVANEDGVLVDCQILTPTAQNEAWLASMLEASLQQDSDRGVELSVENSIRTANPCLPCSSAPEGHMGVVIEKGN", "soluble on expression in E. coli": "not soluble"}, {"sequence": "YDKEFGGFGGAPKFPMAMNLSFLLRYGQRYGDGEAVAMATDTLTAMAQGGIWDHLGGGFHRYTVDGRWLVPHFEKMLYDQALCTLALVEAAQVTGNSVFRELAKETCGFVLRELSAPAGGFYSALDADSEGREGACYLWTPAQVRDILGVADGELFCRLYAVTAWGNFEGANVLHLPLAPDAFARDEGVDPLRLQEKIAQWHILLLEARERRPRPFRDEKIITGWNGLMIAALARTFLICGDELLLEGAERAVRRVCIDLRTPAGRLVRSCHRGEASGPGFLEDYAFFIRGLLELHEATLDPRHLALARSLAHDMLRLFGDSGGGLFDTGSDAETILVRGKG", "soluble on expression in E. coli": "not soluble"}, {"sequence": "YIKYFNDKTIDEELERDKRVTWIVEFFANWSNDCQSFAPIYADLSLKYNCTGLNFGKVDVGRYTDVSTRYKVSTSPLTKQLPTLILFQGGKEAMRRPQIDKKGRAVSWTFSEENVIREFNLNEL", "soluble on expression in E. coli": "soluble"}, {"sequence": "YTSLIRRVEHAVDSDGSFETGNEVKLSGVGVIGTDERFERVGETYASYYGYESEELVGKHWSELHPSNEVQHIRTHVIPAVRSGGKWTGQSKGLRADETTFTESKMVTALEDGRMLIAVDEIDDSGLAE", "soluble on expression in E. coli": "not soluble"}]}]}
